In patent publication US20240116985A1, “STAPLED PEPTIDES AND METHODS THEREOF” (priority 2020, published 2024):
Starred links: 1 amine or outer side, 2 acyl side, 3 side chain; linkers in the order of their positions; H or OH if unused. Positions of bridges follow the written chain, without caps; N, C: chain ends. Non-standard residues stand in square brackets, D forms with d. Primed or numbered codes have the meaning given here. *: point of attachment. PyrS2″ = (S)-3-amino-1-((pent-4-en-1-yloxy)carbonyl)pyrrolidine-3-carboxylic acid (stapling residue), C=CCCCOC(=O)N1CC[C@@](N[*:1])(C(=O)[*:2])C1; B5(23) = 2-amino-2-(pent-4-en-1-yl)hept-6-enoic acid (2,2-bis(4-pentenyl)glycine), stitching residue, C=CCCCC(CCCC=C)(N[*:1])C(=O)[*:2]; B5(4) = 2,2-bis(4-pentenyl)glycine = 2-amino-2-(pent-4-en-1-yl)hept-6-enoic acid (stitching residue), C=CCCCC(CCCC=C)(N[*:1])C(=O)[*:2]; B5(5) = 2,2-bis(4-pentenyl)glycine, 2-amino-2-(pent-4-en-1-yl)hept-6-enoic acid (stitching residue), C=CCCCC(CCCC=C)(N[*:1])C(=O)[*:2]; TfeGA(3) = (S)-2-amino-3-((carboxymethyl)(2,2,2-trifluoroethyl)amino)prop[anoic acid], O=C([C@H](CN(CC(=O)[*:3])CC(F)(F)F)N[*:1])[*:2]; PyrS2 = (S)-3-amino-1-((pent-4-en-1-yloxy)carbonyl)pyrrolidine-3-carboxylic acid, C=CCCCOC(=O)N1CC[C@@](N[*:1])(C(=O)[*:2])C1; B5(7) = 2-amino-2-(pent-4-en-1-yl)hept-6-enoic acid, two olefinic side chains, C=CCCCC(CCCC=C)(N[*:1])C(=O)[*:2]; R4 = (R)-2-amino-2-methylhex-5-enoic acid, C=CCC[C@@](C)(N[*:1])C(=O)[*:2]; Phe(4-COOH) = N[C@@H](Cc1ccc(C(=O)O)cc1)C(=O)O; Abu(4,4,4-F3) = N[C@@H](CC(F)(F)F)C(=O)O; Ala(2-furyl) = N[C@@H](Cc1ccco1)C(=O)O; dαMeGly(allyl) = C=CC[C@@](C)(N)C(=O)O; Bta = N[C@@H](Cc1csc2ccccc12)C(=O)O; Lys(iPr) = CC(C)NCCCC[C@H](N)C(=O)O; αAllylPro = C=CC[C@@]1(C(=O)O)CCCN1; tBuAla = CC(C)(C)C[C@H](N)C(=O)O; 2Thi = N[C@@H](Cc1cccs1)C(=O)O; 3Thi = N[C@@H](Cc1ccsc1)C(=O)O; Cit = NC(=O)NCCC[C@H](N)C(=O)O; S8 = C=CCCCCCC[C@](C)(N)C(=O)O; Dab = NCC[C@H](N)C(=O)O; Abu = CC[C@H](N)C(=O)O; Dap = NC[C@H](N)C(=O)O; Acryloyl = C=CC(=O)*

Assays:
[1] = target: full-length beta-Catenin (Uniprot ID P35222) (Homo sapiens (Human)) (UniProt P35222); experiment: fluorescence polarization competition; full-length beta-catenin, 5FAM-TCF4(10-53) probe as competitor
Target sequence in this assay (P35222 2-781 limits assumed): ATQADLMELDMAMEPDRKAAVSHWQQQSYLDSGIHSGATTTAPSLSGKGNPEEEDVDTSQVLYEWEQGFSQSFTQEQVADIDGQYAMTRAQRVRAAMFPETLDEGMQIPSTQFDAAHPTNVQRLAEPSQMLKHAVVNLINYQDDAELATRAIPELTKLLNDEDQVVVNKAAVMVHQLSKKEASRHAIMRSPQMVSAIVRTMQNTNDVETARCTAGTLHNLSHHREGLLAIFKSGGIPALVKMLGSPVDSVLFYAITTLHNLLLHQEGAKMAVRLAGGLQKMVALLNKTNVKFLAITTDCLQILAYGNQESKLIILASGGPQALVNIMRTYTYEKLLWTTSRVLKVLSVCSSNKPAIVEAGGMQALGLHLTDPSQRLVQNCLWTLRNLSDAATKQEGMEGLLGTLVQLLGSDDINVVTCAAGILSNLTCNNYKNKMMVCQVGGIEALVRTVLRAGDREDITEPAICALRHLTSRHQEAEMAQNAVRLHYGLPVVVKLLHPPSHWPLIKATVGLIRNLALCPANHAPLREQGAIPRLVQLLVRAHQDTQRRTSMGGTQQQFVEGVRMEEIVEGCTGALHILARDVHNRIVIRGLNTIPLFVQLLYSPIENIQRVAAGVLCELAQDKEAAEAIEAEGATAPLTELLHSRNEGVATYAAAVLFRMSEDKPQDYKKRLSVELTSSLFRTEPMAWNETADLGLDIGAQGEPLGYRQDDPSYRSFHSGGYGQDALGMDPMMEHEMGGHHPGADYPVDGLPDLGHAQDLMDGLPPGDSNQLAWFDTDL

[2] = target: full-length beta-Catenin (Uniprot ID P35222) (Homo sapiens (Human)) (UniProt P35222); experiment: fluorescence polarization competition; displacement of 5FAM-TCF4(10-53) from full-length beta-catenin
Target sequence in this assay (P35222 whole entry): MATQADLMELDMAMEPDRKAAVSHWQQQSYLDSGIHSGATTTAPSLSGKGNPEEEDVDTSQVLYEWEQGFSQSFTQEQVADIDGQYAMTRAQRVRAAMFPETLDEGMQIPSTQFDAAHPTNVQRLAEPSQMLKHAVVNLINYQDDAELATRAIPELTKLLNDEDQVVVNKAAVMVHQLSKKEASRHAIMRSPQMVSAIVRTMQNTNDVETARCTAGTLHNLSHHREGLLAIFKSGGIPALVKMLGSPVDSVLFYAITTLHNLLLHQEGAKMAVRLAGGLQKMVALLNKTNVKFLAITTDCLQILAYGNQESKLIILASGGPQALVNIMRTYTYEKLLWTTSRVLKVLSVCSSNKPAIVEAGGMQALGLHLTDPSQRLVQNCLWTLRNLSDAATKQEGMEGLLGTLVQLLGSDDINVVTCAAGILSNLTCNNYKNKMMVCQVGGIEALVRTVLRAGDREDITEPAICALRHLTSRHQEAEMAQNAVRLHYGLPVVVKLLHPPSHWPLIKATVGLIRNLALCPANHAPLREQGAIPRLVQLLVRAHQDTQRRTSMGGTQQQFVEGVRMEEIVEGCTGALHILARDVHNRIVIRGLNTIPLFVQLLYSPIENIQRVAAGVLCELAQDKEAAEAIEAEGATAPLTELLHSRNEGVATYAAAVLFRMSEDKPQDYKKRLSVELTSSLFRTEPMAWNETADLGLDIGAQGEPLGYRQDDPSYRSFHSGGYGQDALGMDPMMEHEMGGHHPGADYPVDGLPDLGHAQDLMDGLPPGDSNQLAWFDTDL

[3] = target: full-length beta-Catenin (Uniprot ID P35222) (Homo sapiens (Human)) (UniProt P35222); experiment: fluorescence polarization competition; full-length beta-catenin with 5FAM-TCF4(10-53) probe as competitor
[4] = target: full-length beta-Catenin (Uniprot ID P35222) (Homo sapiens (Human)) (UniProt P35222); experiment: fluorescence polarization competition; 10 nM full-length beta-catenin + 10 nM 5FAM-TCF4(10-53) probe
Target sequence in this assay (P35222 whole entry): as above

[5] = target: full-length beta-Catenin (Uniprot ID P35222) (Homo sapiens (Human)) (UniProt P35222); experiment: fluorescence polarization competition; full-length beta-catenin, competitor 5FAM-TCF4(10-53) probe

Row | Binder | EC50 [2] [nM] | IC50 [3] [nM] | other results
1 | Ac-[αAllylPro]D[tBuAla][B5(4)]QQAAFN[PyrS2][3Thi][Bta]Q-NH2 (staple 1-4, 4-11) [I-1558] |  |  | IC50 [1]: 678 nM
2 | Ac-[αAllylPro]DI[B5(4)]DDAAFQ[S8]F[Bta][Dab]-NH2 (staple 1-4, 4-11) [I-482] | 118 | 118 | 
3 | Ac-[αAllylPro]DA[B5(4)]DEAA[2Thi]Q[S8]F[Bta]Q-NH2 (staple 1-4, 4-11; also: earlier eluting HPLC peak (staple isomer)) [I-486] | 147 | 147 | 
4 | Ac-[αAllylPro]D[tBuAla][B5(4)]NT[Lys(iPr)]AFN[PyrS2″][3Thi][Bta]Q-NH2 (staple 1-4, 4-11; not fully specified; printed as Ac-PL3-Asp-Npg-B5-Asn-Thr-iPrLys-Ala-Phe-Asn-PyrS2-3Thi-BztA-Gln-NH2) [I-2005] |  |  | IC50 [4]: 357 nM
5 | Ac-[αAllylPro]DA[B5(4)]DEAA[2Thi]Q[S8]F[Bta]Q-NH2 (staple 1-4, 4-11; also: later eluting HPLC peak (staple isomer)) [I-487] | 45 | 45 | 
6 | Ac-PD[tBuAla][dαMeGly(allyl)]DDAAFL[PyrS2][3Thi][Bta]Q-NH2 (staple 4-11; not fully specified; printed as Ac-Pro-Asp-Npg-R3-Asp-Asp-Ala-Ala-Phe-Leu-PyrS2-3Thi-BztA-Gln-NH2; also: staple -CH=CH- reduced to -CH2-CH2-) [I-1993] |  |  | IC50 [4]: 728 nM
7 | Ac-[αAllylPro]D[tBuAla][B5(7)]DDAAFQ[PyrS2][3Thi][Bta]Q-NH2 (staple 1-4, 4-11) [I-763] |  | 5 | EC50 [5]: 5 nM
8 | Ac-[αAllylPro]D[tBuAla][B5(4)]TNAAFN[PyrS2][3Thi][Bta]Q-NH2 (staple 1-4, 4-11) [I-1559] |  |  | IC50 [1]: 9680 nM
9 | Ac-[αAllylPro]D[tBuAla][B5(4)]NT[Lys(iPr)]AFN[PyrS2″][3Thi][Bta]Q-NH2 (staple 1-4, 4-11; not fully specified; printed as Ac-PL3-Asp-Npg-B5-Asn-Thr-iPrLys-Ala-Phe-Asn-PyrS2-3Thi-BztA-Gln-NH2) [I-2004] |  |  | IC50 [4]: 227 nM
10 | Ac-[αAllylPro]D[tBuAla][B5(7)]DDAAFQ[PyrS2][3Thi][Bta]H-NH2 (staple 1-4, 4-11) [I-771] |  | 5 | EC50 [5]: 5 nM
11 | Ac-[αAllylPro]DA[B5(23)]NNAAFN[PyrS2][3Thi][Bta]Q-NH2 (staple 1-4, 4-11) [I-1556] |  |  | IC50 [1]: 385 nM
12 | Ac-[αAllylPro]D[Abu(4,4,4-F3)][B5(4)]DEAAFQ[S8]F[Bta]Q-NH2 (staple 1-4, 4-11; also: earlier eluting HPLC peak (staple isomer)) [I-501] | 94 | 94 | 
13 | Ac-[αAllylPro]DI[B5(5)]D[Cit]AAFQ[S8]F[Bta]Q-NH2 (staple 1-4, 4-11) [I-605] |  | 632 | EC50 [5]: 632 nM
14 | Ac-[αAllylPro]DI[B5(5)]D[Cit]AAFQ[S8]F[Bta]Q-NH2 (staple 1-4, 4-11; also: staple isomer, earlier eluting HPLC peak) [I-604] |  | 692 | EC50 [5]: 692 nM
15 | Ac-[αAllylPro]DA[B5(4)]NTAAFN[PyrS2″][3Thi][Bta]Q-NH2 (staple 1-4, 4-11; not fully specified; printed as Ac-PL3-Asp-Ala-B5-Asn-Thr-Ala-Ala-Phe-Asn-PyrS2-3Thi-BztA-Gln-NH2) [I-2002] |  |  | IC50 [4]: 612 nM
16 | Ac-[αAllylPro]DI[B5(4)]DDAA[2Thi]Q[S8]F[Bta]H-NH2 (staple 1-4, 4-11) [I-489] | 57 | 57 | 
17 | Ac-[αAllylPro]DI[B5(5)]D[Phe(4-COOH)]AAFQ[S8]F[Bta]Q-NH2 (staple 1-4, 4-11; also: staple isomer, earlier eluting HPLC peak) [I-606] |  | 289 | EC50 [5]: 289 nM

Row | Binder | EC50 [2] [nM] | IC50 [3] [nM] | other results
18 | Ac-[αAllylPro]D[tBuAla][B5(23)]NNAAFL[PyrS2][3Thi][Bta]Q-NH2 (staple 1-4, 4-11) [I-1557] |  |  | IC50 [1]: 342 nM
19 | Ac-[αAllylPro]D[Abu][B5(4)]DEAAFN[S8]F[Bta]Q-NH2 (staple 1-4, 4-11) [I-473] | 121 | 121 | 
20 | Ac-[αAllylPro]D[tBuAla][B5(4)]NTA[Lys(iPr)]FN[PyrS2″][3Thi][Bta]Q-NH2 (staple 1-4, 4-11) [I-2006] |  |  | IC50 [4]: 285 nM
21 | Ac-[αAllylPro]DI[B5(4)]DEAA[2Thi]Q[S8]F[Bta]H-NH2 (staple 1-4, 4-11) [I-488] | 43 | 43 | 
22 | Ac-[αAllylPro]DI[B5(4)]DDAAFQ[S8][Dap](Acryloyl)[Bta]Q-NH2 (staple 1-4, 4-11; also: earlier eluting HPLC peak (staple isomer)) [I-483] | 5000 | 5000 | 
23 | Ac-[αAllylPro]DA[B5(4)]D[TfeGA(3)]AAFQ[S8]F[Bta]H-NH2 (staple 1-4, 4-11) [I-499] | 123 | 123 | 
24 | Ac-[αAllylPro]DI[B5(4)]DDAAFQ[S8][Dap](Acryloyl)[Bta]Q-NH2 (staple 1-4, 4-11; also: later eluting HPLC peak (staple isomer)) [I-484] | 5000 | 5000 | 
25 | Ac-PD[tBuAla][R4]DDAAFL[PyrS2][3Thi][Bta]Q-NH2 (staple 4-11; not fully specified; printed as Ac-Pro-Asp-Npg-R4-Asp-Asp-Ala-Ala-Phe-Leu-PyrS2-3Thi-BztA-Gln-NH2; also: staple -CH=CH- reduced to -CH2-CH2-) [I-1992] |  |  | IC50 [4]: 536 nM
26 | Ac-[αAllylPro]DI[B5(5)]D[Phe(4-COOH)]AAFQ[S8]F[Bta]Q-NH2 (staple 1-4, 4-11) [I-607] |  | 253 | EC50 [5]: 253 nM
27 | Ac-[αAllylPro]DA[B5(4)]NTAAFN[PyrS2″][3Thi][Bta]Q-NH2 (staple 1-4, 4-11; not fully specified; printed as Ac-PL3-Asp-Ala-B5-Asn-Thr-Ala-Ala-Phe-Asn-PyrS2-3Thi-BztA-Gln-NH2) [I-2003] |  |  | IC50 [4]: 1020 nM
28 | Ac-[αAllylPro]D[Abu][B5(4)]DEAAFN[S8]F[Bta]Q-NH2 (staple 1-4, 4-11) [I-474] | 43 | 43 | 
29 | Ac-[αAllylPro]D[tBuAla][B5(7)]DDAAFQ[PyrS2][3Thi][Bta]Q-NH2 (staple 1-4, 4-11) [I-764] |  | 14 | EC50 [5]: 14 nM
30 | Ac-[αAllylPro]DA[B5(4)]DEAAFQ[S8]F[Bta][Ala(2-furyl)]-NH2 (staple 1-4, 4-11) [I-490] | 88 | 88 | 
31 | Ac-[αAllylPro]D[tBuAla][B5(7)]DDAAFQ[PyrS2][3Thi][Bta]H-NH2 (staple 1-4, 4-11) [I-772] |  | 7 | EC50 [5]: 7 nM
32 | Ac-[αAllylPro]D[tBuAla][B5(4)]QNAAFN[PyrS2][3Thi][Bta]Q-NH2 (staple 1-4, 4-11) [I-1560] |  |  | IC50 [1]: 368 nM
33 | Ac-[αAllylPro]DI[B5(4)]D[TfeGA(3)]AAFQ[S8]F[Bta]H-NH2 (staple 1-4, 4-11) [I-500] | 176 | 176 | 
